Data from paper PMC7079100.

Assays:
MSI2-RRM1 [1] = biological target: T1, MSI2-RRM1 (Homo sapiens, UniProt Q96DH6 21-111); assay: fluorescence polarization; 2 nM RNA; lower affinity than Numb15; Kd only in figure; FP at room temperature, 2 nM 3' FAM RNA; buffer, salt and pH not given (previously described methods)
MSI2-RRM1 [2] = biological target: T1, MSI2-RRM1; assay: fluorescence polarization; 2 nM RNA; highest affinity of the three; Kd only in figure; FP at room temperature, 2 nM 3' FAM RNA; buffer, salt and pH not given (previously described methods)

T1 sequence (Q96DH6 21-111): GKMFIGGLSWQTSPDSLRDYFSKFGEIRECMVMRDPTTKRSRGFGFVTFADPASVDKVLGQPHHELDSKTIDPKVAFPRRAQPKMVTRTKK

| Binder | binding result (MSI2-RRM1 [1]) | binding result (MSI2-RRM1 [2]) |
| --- | --- | --- |
| GUAGUAGU (ssRNA) [Numb8] | binds |  |
| GUAGU (ssRNA) [Numb5] | binds |  |
| UAGGUAGUAGUUUUA (ssRNA) [Numb15] |  | binds |
